Consider four molecules from US11078465B2, “Alcohol dehydrogenase mutant and application thereof in synthesis of diaryl chiral alcohols” (Jiangnan University, priority 2018, dated 2021).

The term Km denotes the concentration of substrate that gives half-maximal velocity. For orientation: Vmax means the top rate of the reaction or transport when substrate is in excess.

Where “and” joins values, the source holds several entries; their conditions need not be identical. Equal values may be shown once.

A short description of series [1]: Kinetic analysis of alcohol dehydrogenase and mutants (NADPH oxidation, 340 nm, double reciprocal curve). It counts as biochemical. To be noted: substrate CPMK. As to the method:
Adopting a total reaction system of 200 μL, including: 1.0 mM NADPH, 1.0 mM substrate CPMK and sodium phosphate buffer (PBS, 100 mM, pH 7.0), fully and evenly mixing, maintaining at 30° C. for 2 min, adding an appropriate amount of enzyme solution, and detecting the change in light absorption at 340 nm.
The enzyme activity was calculated by the following formula: Enzyme activity (U)=EW×V×10^3/(6220×I);
in the formula, EW is the change in absorbance at 340 nm in 1 min; V is the volume of a reaction solution in mL; 6220 is the molar extinction coefficient of NADPH in L/mol·cm); and 1 is the optical path distance in cm. One activity unit (U) corresponds to the amount of enzyme required to catalyze the oxidation of 1 μmol NADPH per minute under the above conditions.
A column used for purification was a nickel affinity column HisTrap FF crude, and purification was achieved through affinity chromatography using a histidine tag on recombinant protein. The nickel column was equilibrated with a solution A first, a crude enzyme solution was loaded, a penetrating peak was further eluted off using the solution A, and after equilibrium, a solution B (20 mM sodium phosphate, 500 mM NaCl, and 1000 mM imidazole, pH 7.4) was used for gradient elution to elute off the recombinant protein bound to the nickel column, so as to obtain the recombinant alcohol dehydrogenase mutant. The purified protein was subjected to activity measurement (CPMK as substrate, and NADPH as coenzyme) and SDS-PAGE analysis. […] The purified alcohol dehydrogenase protein was then replaced into a Tris-HCl (100 mM, pH 7.0) buffer using a Hi Trap Desalting column (GE Healthcare).
The activity of KpADH at different substrate concentrations and coenzyme concentrations was determined, and a double reciprocal curve was made based on the reciprocal of activity and substrate concentration to calculate kinetic parameters.

The nature of series [2]: Stereoselectivity (ee) of CPMK reduction, chiral liquid chromatography. It counts as biochemical. To be noted: for ee % / e.e.: product configuration in brackets. The procedure:
In an embodiment of the present disclosure, a chromatographic analysis method is as follows: 100 μL of reactant liquid is taken, 500 μL of ethyl acetate is added, shaking is performed for 1-2 min, centrifugation is performed at 12,000 rpm for 2-5 min, supernatant liquid is taken into a centrifuge tube, after an organic phase naturally volatilizes completely, 500 μL of chromatographically pure ethanol is added, and chiral liquid chromatography and gas chromatography are performed to analyze the transformation rate and the ee value.
Method for determining optical purity ee:
As: molar concentration of (S)-CPMA obtained by liquid chromatography; and AR: molar concentration of (R)-CPMA obtained by liquid chromatography.

B1: E214V: valine for glutamate at position 214 of the alcohol dehydrogenase of SEQ ID No. 2 (protein)
chain: MSVLISGASGYIAKHIVRVLLEQNYKVIGTVRSQDKADKLLKQYNNPNLSYEIVPEIANLDAFDDIFKKHGKEIKYVIHAASPVNFGAKDLEKDLVIPAINGTKNMFEAIKKYAPDTVERVVMTASYASIMTPHRQNDPTLTLDEETWNPVTEENAYENVFTAYCASKTFAEKEAWKFVKENSDAVKFKLTTIHPSFVFGPQNFDEDVTKKLNVTCEIINGLLHAPFDTKVEKTHFSQFIDVRDVAKTHVLGFQKDELINQRLLLCNGAFSQQDIVNVFNEDFPELKGQFPPEDKDTDLNKGVTGCKIDNEKTKKLLAFEFTPFHKTIHDTVYQILHKEGRV
modifications: Protein translated from synthetic DNA
Consider B1, for which, in series [1], the Kcat is 8.91 ± 0.48 s⁻¹, the Km was 420 µM and the Vmax was found to be 13.36 ± 0.89 µM/min/mg. For the same molecule, in series [2] (R configuration product), the “ee value, (R)-CPMA” value was 91% and 95.3%. The ee % in series [2] was 95.3 (R) %.

B2: E214G: glycine for glutamate at position 214 of the alcohol dehydrogenase of SEQ ID No. 2 (protein)
chain: MSVLISGASGYIAKHIVRVLLEQNYKVIGTVRSQDKADKLLKQYNNPNLSYEIVPEIANLDAFDDIFKKHGKEIKYVIHAASPVNFGAKDLEKDLVIPAINGTKNMFEAIKKYAPDTVERVVMTASYASIMTPHRQNDPTLTLDEETWNPVTEENAYENVFTAYCASKTFAEKEAWKFVKENSDAVKFKLTTIHPSFVFGPQNFDEDVTKKLNGTCEIINGLLHAPFDTKVEKTHFSQFIDVRDVAKTHVLGFQKDELINQRLLLCNGAFSQQDIVNVFNEDFPELKGQFPPEDKDTDLNKGVTGCKIDNEKTKKLLAFEFTPFHKTIHDTVYQILHKEGRV
modifications: Protein translated from synthetic DNA
As for B2, in series [1], the Kcat stood at 5.5 ± 0.10 s⁻¹, the Km came to 250 µM and the maximal velocity (Vmax) came out at 8.26 ± 0.15 µM/min/mg. For the same molecule, in series [2], the “configuration of product / stereoselectivity in words” value is “inversion from an R configuration to an S configuration”, the e.e. is listed as 25.6 (S) and the ee % is 25.6 (S) %.

B3: S237A: alcohol dehydrogenase mutant obtained by random mutation screening (protein)
chain: MSVLISGASGYIAKHIVRVLLEQNYKVIGTVRSQDKADKLLKQYNNPNLSYEIVPEIANLDAFDDIFKKHGKEIKYVIHAASPVNFGAKDLEKDLVIPAINGTKNMFEAIKKYAPDTVERVVMTASYASIMTPHRQNDPTLTLDEETWNPVTEENAYENVFTAYCASKTFAEKEAWKFVKENSDAVKFKLTTIHPSFVFGPQNFDEDVTKKLNITCEIINGLLHAPFDTKVEKTHFAQFIDVRDVAKTHVLGFQKDELINQRLLLCNGAFSQQDIVNVFNEDFPELKGQFPPEDKDTDLNKGVTGCKIDNEKTKKLLAFEFTPFHKTIHDTVYQILHKEGRV
modifications: Protein translated from synthetic DNA
notes: alcohol dehydrogenase mutant obtained by random mutation screening
In the case of B3, the e.e. in series [2] is on record as 96.1 (R).

B4: S237C: alcohol dehydrogenase mutant obtained by random mutation screening (protein)
chain: MSVLISGASGYIAKHIVRVLLEQNYKVIGTVRSQDKADKLLKQYNNPNLSYEIVPEIANLDAFDDIFKKHGKEIKYVIHAASPVNFGAKDLEKDLVIPAINGTKNMFEAIKKYAPDTVERVVMTASYASIMTPHRQNDPTLTLDEETWNPVTEENAYENVFTAYCASKTFAEKEAWKFVKENSDAVKFKLTTIHPSFVFGPQNFDEDVTKKLNGTCEIINGLLHAPFDTKVEKTHFCQFIDVRDVAKTHVLGFQKDELINQRLLLCNGAFSQQDIVNVFNEDFPELKGQFPPEDKDTDLNKGVTGCKIDNEKTKKLLAFEFTPFHKTIHDTVYQILHKEGRV
modifications: Protein translated from synthetic DNA
notes: as for B3
B4: the e.e. in series [2] was 27 (R).
